These results are taken from patent US20250109204A1 (LAVA THERAPEUTICS N V, published 2025).

Changes are numbered by the printed parent chain. Names and notes keep the numbering of the source.

Experiment [1] addresses Epidermal growth factor receptor (EGFR) on tumor cell lines A-431, HCT-116 and HT-29 (human) (UniProt P00533). The experiment is described as follows: cell-based or functional assay.
Experiment [2] addresses Human Vγ9Vδ2 T cell receptor on primary Vγ9Vδ2 T cells (human) (UniProt Q99603). The experiment is described as follows: cell-based or functional assay.
The target in experiment [3] is T1, Epidermal growth factor receptor (EGFR) on tumor cell lines A-431, HCT-116 and HT-29 (human, UniProt P00533 25-1210). The experiment is described as follows: cell-based or functional assay.
The target of experiment [4] is Human Vγ9Vδ2 T cell receptor on primary Vγ9Vδ2 T cells (human), Q99603. The experiment can be described thus: cell-based or functional assay.
In experiment [5] the target is T1, Epidermal growth factor receptor (EGFR) …. The experiment is described as follows: cell-based ELISA on A-431 cells, anti-IgG1-HRP, signal at 450 nm. Here is the method: (§1) To this end, tumor cells were first seeded at different concentrations on day-1 to reach a concentration of approximately 50000 cells/well on day 0. […] Bound antibodies were then labelled in a secondary incubation step with anti-IgG1-HRP for one hour at 37° C. The secondary antibody binding was then resolved by the addition of 3,3′,5,5′-Tetramethylbenzidine and the colorimetric change induced by the HRP, followed by the addition of H2SO4 to stop the reaction. The optical density (OD) was then measured in a UV spectrometer at a wavelength of 450 nm.

The target of experiment [6] is Human Vγ9Vδ2 T cell receptor on primary Vγ9Vδ2 T cells (human) (UniProt Q99603). The experiment can be described thus: flow cytometry on expanded primary human Vγ9Vδ2 T cells (two donors), labelled anti-IgG1 secondary antibody. (In flow cytometry, cells or beads pass a laser one at a time.)
Experiment [7] deals with T1, Epidermal growth factor receptor (EGFR) …. The experiment can be described thus: cell-based ELISA on HT29 cells, anti-IgG1-HRP, signal at 450 nm; EC50 table gives no unit, x axis is in nM. As for the experimental part: as §1
(In general: An ELISA detects its analyte on a solid surface through an enzyme-linked reagent.)

For experiment [8] the target is unchanged. The experiment can be described thus: cell-based ELISA on HCT-116 cells, anti-IgG1-HRP, signal at 450 nm; EC50 table gives no unit, x axis is in nM. Here is the method:
as §1

Experiment [9] has the same target. The experiment is described as follows: cell-based ELISA on EGFR-expressing A-431, HCT-116 and HT-29 cells, anti-IgG1-HRP, OD 450 nm; one EC50 given for all three cell lines A-431, HCT-116 and HT-29; 37° C. As for the experimental part:
as §1

Experiment [10] deals with Human Vγ9Vδ2 T cell receptor on primary Vγ9Vδ2 T cells (human) (UniProt Q99603). The experiment is described as follows: flow cytometry on expanded primary Vγ9Vδ2 T cells of donor D336 (panel 'Binding to D336 P3'), anti-IgG1 secondary, MFI (geometric mean); EC50 table beside the curve gives no unit, x axis is in nM.
Experiment [11] has the same target. The experiment can be described thus: flow cytometry on expanded primary Vγ9Vδ2 T cells of donor D339 (panel 'Binding to D339 P2'), anti-IgG1 secondary, MFI (geometric mean); EC50 table beside the curve gives no unit, x axis is in nM.
For experiment [12], the target named is T1, Epidermal growth factor receptor (EGFR) …. The experiment is described as follows: cell-based ELISA on A-431 cells, anti-IgG1-HRP, signal at 450 nm; EC50 table gives no unit, x axis is in nM; the table is identical to that of Fig. 10C and does not fit the drawn curve. Here is the method:
as §1

For experiment [13], the target named is Recombinant human Vγ9Vδ2-Fc fusion protein (human) (UniProt Q99603). The experiment can be described thus: BLI (Octet RED96), Vγ9Vδ2-Fc captured on anti-human Fc biosensors, VHH as analyte, 1:1 global fit, mean of at least three measurements +/- SD. In general terms: BLI is a label-free optical method that tracks binding on a fibre tip over time.

With “bispecific VHH 7D12-5C8 (non-humanized) (bispecific antibody)”, the EC50 cytotoxicity (pM) in experiment [1] was determined as 9 pM. Further, the EC50 degranulation (pM) in experiment [2] was determined as 10 pM.

B1: bispecific VHH 7D12var8-5C8var1-Y105F (bispecific antibody)
chain: EVQLVESGGGSVQPGGSLRLSCAASGRTSRSYGMGWFRQAPGKEREFVSGISWRGDSTGYADSVKGRFTISRDNAKNTVDLQMNSLRAEDTAVYYCAAAAGSAWYGTLYEYDYWGQGTLVTVSSGGGGSEVQLLESGGGSVQPGGSLRLSCAASGRPFSNYAMSWFRQAPGKEREFVSAISWSGGSTSYADSVKGRFTISRDNSKNTLYLQMNSLRAEDTAVYYCAAQFSGADFGFGRLGIRGYEYDYWGQGTQVTVSS
Consider B1, for which the “EC50 cytotoxicity (pM)” value in [3] turned out to be 2.5 pM. In experiment [4], this molecule yielded an EC50 degranulation (pM) of 11 pM.

B2: 7D12var8-5C8var1 (Y105F)-Fc (bispecific antibody, V domains shown)
V domain 1: EVQLVESGGGSVQPGGSLRLSCAASGRTSRSYGMGWFRQAPGKEREFVSGISWRGDSTGYADSVKGRFTISRDNAKNTVDLQMNSLRAEDTAVYYCAAAAGSAWYGTLYEYDYWGQGTLVTVSS
V domain 2: EVQLLESGGGSVQPGGSLRLSCAASGRPFSNYAMSWFRQAPGKEREFVSAISWSGGSTSYADSVKGRFTISRDNSKNTLYLQMNSLRAEDTAVYYCAAQFSGADFGFGRLGIRGYEYDYWGQGTQVTVSS
notes: Heterodimer of two VHH-Fc chains: 7D12var8-Fc (hole) and 5C8var1(Y105F)-Fc (knob); Human IgG1 Fc with L234F and L235E; In both entries the last residue X3 is K or absent; copies: 1 + 1
The EC50 (read off the curve) is the concentration needed to bring the measured effect to its halfway point. Low values mean greater potency, high ones weaker potency. Usually EC50 stands for the concentration needed to bring the measured effect to its halfway point. As to B2, the EC50 for Vγ9Vδ2 T cell degranulation (CD107a) in experiment [2] was 40 to 90 pM. In addition, in [5], the “EC50 (read off the curve)” value was roughly 1 nM. Moreover, the EC50 is 3 nM in [6]; 6.45 nM in [7]; 7.29 nM in experiment [8]; roughly 7 nM in experiment [9]; 3.11 nM in [10]; 3.99 nM in experiment [11]. In [12], this molecule gave an EC50 of 7.29 nM.

B3: VHH 5C8var1-Y105S (VHH)
VHH: B2 V domain 2 with F105S
What is called Kd is the constant that tells how readily two partners part at equilibrium. With B3, the Kd in [13] worked out at 1.59 nM.

B4: VHH 5C8var1-Y105F (VHH)
VHH: B2 V domain 2
Consider B4, for which, in experiment [13], the Kd was 0.78 nM.

B5: VHH 5C8var1 (VHH)
VHH: B2 V domain 2 with F105Y
modifications: Y105 partly sulfated (shown for 5C8 and for 1D12var5-5C8var1; 5C8var1 gave two HP-SEC peaks)
Take B5: the Kd in experiment [13] was 0.81 nM.
